Measured values reported in paper PMC6232179.

Biological target: His-tagged ER luminal domain of IRE1α (IRE1-NLD-His6-KDEL)
Assay: SPR; IRE1-NLD amine-coupled on a CM5 chip (~1500 RU); COX-2 flowed at 0 to 10000 nM in 10 mM Hepes pH 7.4, 150 mM NaCl, 0.005% P20, 30 µl/min; BIACore T200; triplicate

B1: COX-2 (prostaglandin endoperoxide synthase 2, PTGS2), purified His-tagged protein (enzyme)
chain: ANPCCSHPCQNRGVCMSVGFDQYKCDCTRTGFYGENCSTPEFLTRIKLFLKPTPNTVHYILTHFKGFWNVVNNIPFLRNAIMSYVLTSRSHLIDSPPTYNADYGYKSWEAFSNLSYYTRALPPVPDDCPTPLGVKGKKQLPDSNEIVEKLLLRRKFIPDPQGSNMMFAFFAQHFTHQFFKTDHKRGPAFTNGLGHGVDLNHIYGETLARQRKLRLFKDGKMKYQIIDGEMYPPTVKDTQAEMIYPPQVPEHLRFAVGQEVFGLVPGLMMYATIWLREHNRVCDVLKQEHPEWGDEQLFQTSRLILIGETIKIVIEDYVQHLSGYHFKLKFDPELLFNKQFQYQNRIAAEFNTLYHWHPLLPDTFQIHDQKYNYQQFIYNNSILLEHGITQFVESFTRQIAGRVAGGRNVPPAVQKVSQASIDQSRQMKYQSFNEYRKRFMLKPYESFEELTGEKEMSAELEALYGDIDAVELYPALLVEKPRPDAIFGETMVEVGAPFSLKGLMGNVICSPAYWKPSTFGGEVGFQIINTASIQSLICNNVKGCPFTSFSVPDPELIKTVTINASSSRSGLDDINPTVLLKERSTEL
modifications: red fluorescent tag, covalently labelled (only in the MST of Figure 4B)
**Q.** For B1, which Kd is on record?
**A.** The Kd was 880 nM.
